Assay [1] concerns the target Dylight488-labeled GluA2 amino terminal domain. In words: AUC; FDS-SV, dilution series of Dylight488-GluA2 ATD, two different runs, global best-fit single component, single class of sites model (Figure 5A); dimer to monomers.
Assay [2] addresses Alexa Fluor 568-labeled GluA2 amino terminal domain. In words: FRET or BRET; kinetic FRET in a spectrofluorometer, 20°C, excitation 495 nm, emission 603 nm; 50 nM donor-labeled and 50 nM AF568-labeled GluA2 ATD pre-equilibrated (30 min DL488, 60 min FAM), then 1 µM unlabeled GluA2 ATD added; decay fitted with exponential functions. On the technique in general: Bioluminescence resonance energy transfer reports proximity on the nanometre scale.

Assay [3] addresses Dylight488-labeled GluA2 amino terminal domain. In words: AUC; fluorescence-detected sedimentation velocity (FDS-SV), dilution series of labeled protein (Figure 3); 50,000 rpm, 20°C; 20 mM Na phosphate pH 7.5, 150 mM NaCl, 1 mM EDTA, 0.1 mg/mL BSA carrier; sw isotherm fitted with a monomer-dimer model; dimer to monomers.
In assay [4] the target is FAM (5,6-carboxyfluorescein)-labeled GluA2 amino terminal domain. As to the kind of experiment: AUC; FDS-SV, dilution series of FAM-GluA2 ATD at labeling ratio 0.68 (Figure 4A/B), down to very low concentrations; 20°C, pH 7.5, 0.1 mg/mL BSA; monomer-dimer model; dimer to monomers.
Assay [5] has the same target. In words: AUC; FDS-SV, dilution series of FAM-GluA2 ATD at labeling ratio 1.32, single-component fit excluding the two lowest concentrations and freely adjusting the s-values (Figure 5A, thin blue line); dimer to monomers.
Assay [6] shares this target. In words: AUC; FDS-SV, dilution series of FAM-GluA2 ATD at labeling ratio 1.05 (Figure 4C/D); 20°C, pH 7.5, 0.1 mg/mL BSA; monomer-dimer model; dimer to monomers.
For assay [7] the target is unchanged. In words: AUC; FDS-SV, dilution series of FAM-GluA2 ATD at labeling ratio 2.26 (Figure 4E/F); 20°C, pH 7.5, 0.1 mg/mL BSA; monomer-dimer model; dimer to monomers.
For assay [8] the target is unchanged. In words: AUC; fluorescence-detected sedimentation velocity (FDS-SV), dilution series of labeled protein (Figure 3); 50,000 rpm, 20°C; 20 mM Na phosphate pH 7.5, 150 mM NaCl, 1 mM EDTA, 0.1 mg/mL BSA carrier; sw isotherm fitted with a monomer-dimer model; dimer to monomers.
Assay [9] has the same target. In words: AUC; FDS-SV, dilution series of FAM-GluA2 ATD at labeling ratio 1.32 extended to lower concentrations (Figure 5); all fits with s-values constrained to those of Dylight488-GluA2 ATD: single-component fit, and three-component fit with populations of different affinity; dimer to monomers.
Assay [10] deals with GluA2 ATD ATD (Rattus norvegicus) (UniProt P19491). In words: sedimentation velocity AUC (far-UV absorbance). Particulars: cited from earlier work.
The target of assay [11] is EGFP-GluA2 ATD fusion protein. As to the kind of experiment: AUC; FDS-SV, titration series: constant low concentration of labeled protein (1 nM for FAM-GluA2 ATD) with unlabeled GluA2 ATD at a range of concentrations (Figure S1); 20°C, pH 7.5, 0.1 mg/mL BSA; sw isotherm, monomer-dimer model; dimer to monomers.
Assay [12] concerns the target Dylight488-labeled GluA2 amino terminal domain. Described as above.
Assay [13] deals with FAM (5,6-carboxyfluorescein)-labeled GluA2 amino terminal domain. The description is as above.

GluA2 ATD ATD, sequence (P19491 22-400): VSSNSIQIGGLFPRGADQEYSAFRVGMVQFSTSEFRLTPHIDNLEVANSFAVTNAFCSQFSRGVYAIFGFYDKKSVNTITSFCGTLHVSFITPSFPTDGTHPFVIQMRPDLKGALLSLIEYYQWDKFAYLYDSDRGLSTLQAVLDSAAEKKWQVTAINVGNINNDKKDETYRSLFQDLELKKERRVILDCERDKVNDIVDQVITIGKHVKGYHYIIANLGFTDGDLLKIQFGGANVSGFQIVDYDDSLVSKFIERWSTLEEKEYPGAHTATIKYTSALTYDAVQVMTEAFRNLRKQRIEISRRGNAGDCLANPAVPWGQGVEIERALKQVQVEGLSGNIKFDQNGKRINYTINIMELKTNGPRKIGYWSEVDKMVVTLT
EGFP-GluA2 ATD fusion protein, sequence (P23819 25-404): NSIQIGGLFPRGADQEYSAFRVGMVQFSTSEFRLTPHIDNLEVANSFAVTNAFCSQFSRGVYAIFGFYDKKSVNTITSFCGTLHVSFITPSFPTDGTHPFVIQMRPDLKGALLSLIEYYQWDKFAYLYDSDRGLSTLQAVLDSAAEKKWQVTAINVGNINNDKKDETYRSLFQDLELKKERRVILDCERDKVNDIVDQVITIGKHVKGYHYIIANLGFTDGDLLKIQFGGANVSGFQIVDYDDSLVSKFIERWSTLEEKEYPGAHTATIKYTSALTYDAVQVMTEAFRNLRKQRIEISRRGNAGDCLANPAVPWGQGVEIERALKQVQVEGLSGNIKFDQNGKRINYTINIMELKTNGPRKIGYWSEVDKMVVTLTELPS

What is called Kd is the free concentration of one partner at which half of the binding sites on the other are occupied at equilibrium, for simple one-to-one binding. In general, stoichiometry N refers to the number of molecules, sites or subunits per partner or assembly. Take “Dylight488-labeled GluA2 amino terminal domain (domain or fragment)”: the Kd in assay [1] is 19.4 nM. In assay [2], this substance showed a half life of the donor/acceptor heterodimer (single-exponential decay) of 2.72 min and a time constant of the decay (single exponential fit, trace shown) of 169 s. In assay [3], this substance registered a Kd of 20.5 nM and a stoichiometry N of 2.
Take “FAM (5,6-carboxyfluorescein)-labeled GluA2 amino terminal domain (domain or fragment)”: in [2], the life-time of the donor/acceptor heterodimer, fast component came out at 95 s; the life-time of the donor/acceptor heterodimer, slow component was found to be 723 s; the time constant of the decay, fast component (double exponential fit, trace shown) came out at 98 s; the time constant of the decay, slow component (double exponential fit, trace shown) turned out to be 640 s. In addition, the Kd in assay [4] is 3.1 nM. Besides, in [5], the Kd came out at 4.6 nM. The dissociation constant Kd in [6] turned out to be 2.6 nM. Also, the Kd in assay [7] was found to be 4.7 nM. In [8], the Kd amounted to 2.3 nM and the stoichiometry N was 2. Moreover, in assay [9], the KD of the high-affinity population (three-component fit) is 1.8 nM, the KD of the low-affinity population (three-component fit) is 24000 nM and the equilibrium dissociation constant (Kd) was determined as 6.3 nM.
GluA2 ATD ATD (from UniProt P19491): the equilibrium dissociation constant (Kd) in assay [10] is 9.4 nM.
Consider “GluA2 amino terminal domain (GluA2 ATD), unlabeled (domain or fragment)”, for which the results for the Kd in assay [11], in assay [12] and in assay [13] were 22 nM, 16.5 nM and 9 nM, respectively.
